Results from the Human Domainome abundance scans (Beltran et al. 2025).
± gives the uncertainty stated by the source.

B1: Chromodomain-helicase-DNA-binding protein 5, residues 411 to 463; numbered along this chain, Q8TDI0 (parent)
chain: EEDDHMEFCRVCKDGGELLCCDACPSSYHLHCLNPPLPEIPNGEWLCPRCTCP

Variants of: B1
Experiment: abundance fitness (aPCA) (normalised: wild type 0, dead -1); higher = more abundant; growth selection in yeast, the domain comes from the species named
Details: Homo sapiens

Abundance fitness: each site, then its substitutions
N34: H -0.303 ± 0.2; M -0.221 ± 0.11; A -0.018 ± 0.052; T -0.189 ± 0.099; G -0.169 ± 0.063; L -0.015 ± 0.048; K 0.046 ± 0.1; P -0.463 ± 0.14; Y -0.139 ± 0.17; V -0.067 ± 0.073; F 0.066 ± 0.096; D -0.27 ± 0.12; R -0.039 ± 0.057; I -0.132 ± 0.15; C -0.074 ± 0.1; S 0.097 ± 0.06; W -0.204 ± 0.067; Q 0.021 ± 0.064; E -0.036 ± 0.069
L37: I -0.023 ± 0.096; P -0.113 ± 0.077; G -0.232 ± 0.063; H 0.268 ± 0.094; A 0.031 ± 0.043; V -0.135 ± 0.079; Q -0.028 ± 0.1; C -0.299 ± 0.098; T -0.005 ± 0.071; F -0.21 ± 0.12; N -0.229 ± 0.18; R -0.006 ± 0.049; S 0.023 ± 0.074; M -0.262 ± 0.098; W -0.109 ± 0.049; E -0.041 ± 0.099; K -0.201 ± 0.1
H29: M -0.87 ± 0.15; T -1.14 ± 0.41; K -1.06 ± 0.25; Y -0.652 ± 0.26; I -1.2 ± 0.49; P -0.732 ± 0.15; V -0.882 ± 0.11; W -1.25 ± 0.26; L -0.528 ± 0.076; F -0.765 ± 0.27; G -0.825 ± 0.063; R -0.741 ± 0.062; C -0.164 ± 0.082; S -0.825 ± 0.14
L33: E -0.452 ± 0.074; S -0.487 ± 0.061; R -0.6 ± 0.053; H -0.706 ± 0.21; V -0.04 ± 0.055; M -0.235 ± 0.095; Y -0.482 ± 0.12; G -0.554 ± 0.058; Q -0.484 ± 0.086; T -0.198 ± 0.049; P -0.496 ± 0.11; W -0.594 ± 0.064; D -0.344 ± 0.1; A -0.171 ± 0.046; F -0.209 ± 0.093; I 0.252 ± 0.082; C -0.125 ± 0.084; N -0.971 ± 0.19; K -0.699 ± 0.049
P36: C -0.084 ± 0.088; L -0.215 ± 0.055; M -0.026 ± 0.082; I 0.125 ± 0.12; F -0.091 ± 0.12; A 0.099 ± 0.08; D -0.068 ± 0.048; E -0.194 ± 0.1; V 0.066 ± 0.088; Q 0.089 ± 0.1; G -0.169 ± 0.06; Y -0.838 ± 0.22; N -0.591 ± 0.32; S -0.023 ± 0.066; H -0.211 ± 0.15; K 0.088 ± 0.11
L30: K -0.043 ± 0.071; M 0.137 ± 0.062; P 0.087 ± 0.057; I -0.002 ± 0.045; Y -0.019 ± 0.08; G 0.002 ± 0.048; V 0.019 ± 0.042; Q 0.016 ± 0.063; W -0.201 ± 0.049; A 0.072 ± 0.061; R -0.018 ± 0.049; C -0.038 ± 0.063; F -0.06 ± 0.044; E -0.142 ± 0.078; N -0.04 ± 0.044; D -0.013 ± 0.075; S 0.02 ± 0.055
P35: G -0.182 ± 0.046; N -0.172 ± 0.096; D -0.246 ± 0.079; Q -0.12 ± 0.063; V -0.145 ± 0.07; L -0.315 ± 0.071; F -0.24 ± 0.049; H -0.353 ± 0.1; C -0.371 ± 0.078; S -0.23 ± 0.06; W -0.404 ± 0.052; Y -0.476 ± 0.099; E 0.034 ± 0.079; I -0.183 ± 0.068; A -0.299 ± 0.057
C32: V -0.963 ± 0.093; Y -0.846 ± 0.18; S -1.05 ± 0.14; W -0.967 ± 0.13; Q -0.72 ± 0.047; I -0.979 ± 0.19; M -0.736 ± 0.15; A -0.768 ± 0.11; R -1 ± 0.083; F -0.758 ± 0.21; K -0.66 ± 0.14; L -0.716 ± 0.097; P -0.638 ± 0.14; N -0.395 ± 0.13; G -0.985 ± 0.084; E -0.264 ± 0.12
H31: V -0.268 ± 0.084; E 0.074 ± 0.093; M -0.088 ± 0.1; C -0.421 ± 0.14; P -0.406 ± 0.13; G 0.089 ± 0.079; D 0.072 ± 0.12; R 0.05 ± 0.049; I -0.044 ± 0.13; L -0.246 ± 0.086; F 0.516 ± 0.14; Q -0.436 ± 0.15; Y -0.455 ± 0.12; K -0.029 ± 0.1; T -0.16 ± 0.1; A -0.092 ± 0.084; W -0.361 ± 0.11; S -0.075 ± 0.08; N 0.121 ± 0.069
Y28: P -0.565 ± 0.076; W -0.188 ± 0.047; G -0.536 ± 0.059; M -0.262 ± 0.045; E -0.853 ± 0.083; V -0.428 ± 0.064; F -0.007 ± 0.046; S -0.679 ± 0.058; K -0.481 ± 0.05; N -0.608 ± 0.13; Q -0.454 ± 0.062; H -0.376 ± 0.12; I -0.535 ± 0.11; T -0.542 ± 0.063; R -0.527 ± 0.053
